These results are taken from US6380373B1, “Steroid receptor coactivator compositions and methods of use” (Baylor College of Medicine, priority 1995, dated 2002).

Experiment [1] addresses T1, E2F (Homo sapiens, UniProt Q01094).
T1 construct: expressed in transfected cells; host or cells: HeLa
The experiment is described as follows: CAT reporter assay E2F/E2F-tk-CAT in HeLa cells. In kind it is cell-based. As to the method:
(§1) Lipofectin (GibcoBRL) was selected for transfection of Hela cells.
The CAT activity of the reporter was determined.
(A reporter such as luciferase makes a cellular process visible.)

The target of experiment [2] is human progesterone receptor B isoform (hPRB) (human) (UniProt P06401). Put plainly: cell-based or functional assay.
Experiment [3] deals with T2, E47 (Homo sapiens, UniProt P15923).
T2 sequence (P15923 1-651 isoform P15923-2): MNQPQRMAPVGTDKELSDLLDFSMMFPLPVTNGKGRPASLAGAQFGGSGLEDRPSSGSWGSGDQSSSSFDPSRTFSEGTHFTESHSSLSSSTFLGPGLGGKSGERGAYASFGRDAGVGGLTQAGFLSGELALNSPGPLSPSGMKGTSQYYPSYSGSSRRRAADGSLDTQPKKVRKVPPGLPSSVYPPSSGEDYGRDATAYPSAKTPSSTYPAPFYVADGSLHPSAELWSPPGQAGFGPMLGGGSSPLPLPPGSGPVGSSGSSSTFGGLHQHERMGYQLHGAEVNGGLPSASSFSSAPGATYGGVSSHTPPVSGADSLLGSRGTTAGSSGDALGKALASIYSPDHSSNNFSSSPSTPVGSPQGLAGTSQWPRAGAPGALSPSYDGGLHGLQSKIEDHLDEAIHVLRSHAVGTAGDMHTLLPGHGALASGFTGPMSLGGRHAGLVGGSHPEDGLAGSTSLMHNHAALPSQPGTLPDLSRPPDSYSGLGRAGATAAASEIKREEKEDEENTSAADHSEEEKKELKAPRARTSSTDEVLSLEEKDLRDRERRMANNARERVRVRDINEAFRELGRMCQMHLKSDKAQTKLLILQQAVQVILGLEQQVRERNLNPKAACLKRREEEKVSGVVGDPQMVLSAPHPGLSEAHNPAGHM
Put plainly: Effect on the transcriptional activity of E47. In kind it is cell-based.

Experiment [4] concerns the target T3, ER (Homo sapiens, UniProt P03372).
T3 construct: expressed in transfected cells; host or cells: HeLa
T3 sequence (P03372 1-595): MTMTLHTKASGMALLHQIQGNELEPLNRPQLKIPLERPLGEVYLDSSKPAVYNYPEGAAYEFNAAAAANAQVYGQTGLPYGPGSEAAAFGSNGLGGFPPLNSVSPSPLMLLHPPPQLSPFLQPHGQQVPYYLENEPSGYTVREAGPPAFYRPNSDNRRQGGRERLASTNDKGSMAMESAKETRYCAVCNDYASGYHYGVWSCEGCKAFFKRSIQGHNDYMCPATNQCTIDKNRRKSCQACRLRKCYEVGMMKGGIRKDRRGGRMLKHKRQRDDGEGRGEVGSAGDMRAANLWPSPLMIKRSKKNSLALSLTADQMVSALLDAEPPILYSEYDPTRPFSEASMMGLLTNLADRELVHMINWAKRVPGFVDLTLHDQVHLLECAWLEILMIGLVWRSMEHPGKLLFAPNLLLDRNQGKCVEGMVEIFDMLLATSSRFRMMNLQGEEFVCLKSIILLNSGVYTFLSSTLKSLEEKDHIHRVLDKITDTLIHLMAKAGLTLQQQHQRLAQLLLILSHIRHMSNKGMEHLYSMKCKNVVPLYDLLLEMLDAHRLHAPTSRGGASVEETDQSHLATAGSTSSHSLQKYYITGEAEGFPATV
Put plainly: CAT reporter assay ER/ERE2-TATA-CAT in HeLa cells. The note with it: 3 μg SRC-1, estradiol 2×10^−8 M. In kind it is cell-based. How it is done: (§2) Biol. 13, 6501-6508), Sp1 and Sp1-tk-CAT (Courey, A. J. and Tjian, R. (1988), Cell 55, 887-898), CREB and CRE-tk-CAT (Chrivia, J. C. et al., (1993), Nature 365, 855) and GAL4VP16 and 17mer-tk-CAT (Baniahmad, A. et al., (1992), EMBO J. 11, 1015-1023) have been previously described and the above references are incorporated herein by reference in their entirety, including any drawings.
as §1
(§3) HeLa cells were cotransfected with 0.5 μg of cDNAs encoding various steroid receptors indicated and 5 μg of their cognates HREs containing reporters, including PR/PRE2-TATA-CAT, ER/ERE2-TATA-CAT, GR/PRE2-TATA-CAT, TR-/DR4-tk-CAT and RXR/DR1-tk-CAT, along with 3 μg of SRC-1 or empty expression vector. Cells were then treated with their corresponding ligands (PR:R5020, ER:estradiol, GR:dexamethasone, TR:Triac, RXR:9-cis retinoic acid) at a concentration of 2×10^−8M. The CAT activity of the reporter was determined using 14 μg of protein extract.

Experiment [5] has as its system GAL4-VP16. The settings on record: HeLa cells, UASG element.
Experimental: Cells were maintained in Dulbecco's modified Eagle's medium supplemented with 10% (vol/vol) fetal calf serum (Smith, C. L. et al., (1993), Proc. Natl. Acad. Sci. USA 90, 6120-6124). The day before transfection, 10^6 cells were seeded in 100 mm dishes and 4-6 h later switched serum-free medium supplemented with Nutridoma-SR (Boehringer Mannhein). When ER was used for transfections, phenol-red-free medium was used (Smith, C. L. et al., (1993), Proc. Natl. Acad. Sci. USA 90, 6120-6124). HeLa cells were transfected with mammalian expression vectors encoding steroid receptors or other transcription factors along with 5 μg of CAT reporter. Lipofectin (GibcoBRL) was selected for transfection of Hela cells.
Cells were then harvested and proteins prepared as whole-cell extracts by freeze-thaw lysis. The reporter CAT activity in the extract was determined using 100 uCi of [^14C]-chloramphenicol and 4 mM acetyl coenzyme A as substrate and standardized by protein content. Activity of the extract was calculated by determining the percentage of conversion of [^14C]-chloramphenicol to the mono and diacetylated forms (Ausubel, F. M., et al., (1992), Short Protocols In Molecular Biology, New York: Greene Publishing Associates and John Wiley & Sons). […]
Experiment [6] concerns the target T4, RXR (Mus musculus, UniProt P28704).
T4 construct: expressed in transfected cells; host or cells: HeLa
T4 sequence (P28704 1-520): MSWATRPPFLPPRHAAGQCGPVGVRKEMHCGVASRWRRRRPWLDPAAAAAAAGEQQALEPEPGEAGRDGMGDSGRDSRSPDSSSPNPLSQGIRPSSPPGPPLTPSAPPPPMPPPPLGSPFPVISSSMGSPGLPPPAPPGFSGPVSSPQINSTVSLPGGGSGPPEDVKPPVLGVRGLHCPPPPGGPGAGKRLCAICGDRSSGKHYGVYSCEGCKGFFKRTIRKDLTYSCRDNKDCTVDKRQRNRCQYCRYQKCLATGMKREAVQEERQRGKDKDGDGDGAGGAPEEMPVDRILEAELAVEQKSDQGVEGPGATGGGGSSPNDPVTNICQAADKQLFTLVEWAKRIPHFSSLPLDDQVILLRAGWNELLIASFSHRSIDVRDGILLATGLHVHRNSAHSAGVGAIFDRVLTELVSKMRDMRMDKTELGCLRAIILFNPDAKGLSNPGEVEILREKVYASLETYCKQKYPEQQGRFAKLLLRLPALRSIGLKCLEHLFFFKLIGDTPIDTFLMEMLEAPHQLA
Put plainly: CAT reporter assay RXR/DR1-tk-CAT in HeLa cells. In kind it is cell-based. The settings on record: 3 μg SRC-1, 9-cis retinoic acid 2×10^−8 M. As to the method: as §2, §1, §3

T1 sequence (Q01094 whole entry): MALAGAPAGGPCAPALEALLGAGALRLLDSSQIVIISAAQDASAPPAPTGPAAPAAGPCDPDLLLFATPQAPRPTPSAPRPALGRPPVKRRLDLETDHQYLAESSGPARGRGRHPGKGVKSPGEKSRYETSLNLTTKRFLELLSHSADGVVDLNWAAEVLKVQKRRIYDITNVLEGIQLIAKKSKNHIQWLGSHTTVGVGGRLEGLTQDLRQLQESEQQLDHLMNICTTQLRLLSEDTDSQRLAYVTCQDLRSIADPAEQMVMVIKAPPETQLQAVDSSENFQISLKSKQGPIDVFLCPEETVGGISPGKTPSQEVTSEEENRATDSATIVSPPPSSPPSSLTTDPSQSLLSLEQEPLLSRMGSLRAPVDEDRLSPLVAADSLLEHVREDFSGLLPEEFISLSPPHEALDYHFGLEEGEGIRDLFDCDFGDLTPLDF

B1: steroid receptor coactivator-one (SRC-1), full-length (protein)
chain: MSIPRVNPSVNPSISPAHGVARSSTLPPSNSNMVSTRINRQQSSDLHSSSHSNSSNSQGSFGCSPGSQIVANVALNKGQASSQSSKPSLNLNNPPMEGTGISLAQFMSPRRQVTSGLATRPRMPNNSFPPNISTLSSPVGMTSSACNNNNRSYSNIPVTSLQGMNEGPNNSVGFSASSPVLRQMSSQNSPSRLNIQPAKAESKDNKEIASTLNEMIQSDNSSSDGKPLDSGLLHNNDRLSDGDSKYSQTSHKLVQLLTTTAEQQLRHADIDTSCKDVLSCTGTSNSASANSSGGSCPSSHSSLTARHKILHRLLQEGSPSDITTLSVEPDKKDSASTSVSVTGQVQGNSSIKLELDASKKKESKDHQLLRYLLDKDEKDLRSTPNLSLDDVKVKVEKKEQMDPCNTNPTPMTKATPEEIKLEAQSQFTADLDQFDQLLPTLEKAAQLPGLCETDRMDGAVTSVTIKSEILPASLQSATARPTSRLNRLPELELEAIDNQFGQPGTGDQIPWTNNTVTAINQSKSEDQCISSQLDELLCPPTTVEGRNDEKALLEQLVSFLSGKDETELAELDRALGIDKLVQGGGLDVLSERFPPQQATPPLIMEERPNLYSQPYSSPFPTANLPSPFQGMVRQKPSLGTMPVQVTPPRGAFSPGMGMQPRQTLNRPPAAPNQLRLQLQQRLQGQQQLIHQNRQAILNQFAATAPVGINMRSGMQQQITPQPPLNAQMLAQRQRELYSQQHRQRQLIQQQRAMLMRQQSFGNNLPPSSGLPVQTGNPRLPQGAPQQFPYPPNYGTNPGTPPASTSPFSQLAANPEASLANRNSMVSRGMTGNIGGQFGTGINPQMQQNVFQYPGAGMVPQGEANFAPSLSPGSSMVPMPIPPPQSSLLQQTPPASGYQSPDMKAWQQGAIGNNNVFSQAVQNQPTPAQPGVYNNMSITVSMAGGNTNVQNMNPMMAQMQMSSLQMPGMNTVCPEQINDPALRHTGLYCNQLSSTDLLKTEADGTQQVQQVQVFADVQCTVNLVGGDPYLNQPGPLGTQKPTSGPQTPQAQQKSLLQQLLTE
For B1, the “effect on E2F transcriptional activity” value in experiment [1] is on record as “did not alter”. Moreover, in experiment [2], the fold induction of PRE2-TATA-CAT reporter activity over the hormone-induced receptor activity (HeLa cells, R5020) came out at 14 fold; the reversal of hER squelching of hPR-mediated CAT reporter activity (HeLa cells) worked out at 16 fold; the stimulation of PR transactivation at the highest concentration of SRC-1 (2 µg), CAT reporter is 5 fold. In experiment [3], the “effect on E47 transcriptional activity” value was “did not alter”. Moreover, the “effect on ER transcriptional activity” value in experiment [4] is on record as “enhance”. In addition, the “effect on GAL4-VP16 transcriptional activity” value in experiment [5] is on record as “enhanced”. In experiment [6], the “effect on RXR transcriptional activity” value is reported as “enhance”.
